Measured values: patent publication EP1788086A1 (HUMAN GENOME SCIENCES, INC., dated 2007)

Experiments:
[1] = biological target: T1, DR5 (expression construct in 293 cells, precipitated with Flag M2 antibody gel) (human, UniProt O14763 52-440); assay: co-immunoprecipitation from co-transfected 293 cell lysates with Flag M2 antibody gel; immunoblot with HRP-conjugated antibody to myc
T1 construct: also called Death Domain Containing Receptor 5; HLYBX88; not shown: Flag tag implied by immunoprecipitation with Flag M2 gel

[2] = biological target: T1, DR5 (expression construct in 293 cells, …); assay: co-immunoprecipitation from co-transfected 293 cell lysates with Flag M2 antibody gel; immunoblot with polyclonal antibody to FADD

Row | binding result [1] | binding result [2] | Binder
1 | no binding |  | myc-tagged TRADD (other, UniProt Q15628 1-312, looked up, Detected with HRP-conjugated antibody to myc; also called myc-TRADD; not shown: myc tag) MAAGQNGHEEWVGSAYLFVESSLDKVVLSDAYAHPQQKVAVYRALQAALAESGGSPDVLQMLKIHRSDPQLIVQLRFCGRQPCGRFLRAYREGALRAALQRSLAAALAQHSVPLQLELRAGAERLDALLADEERCLSCILAQQPDRLRDEELAELEDALRNLKCGSGARGGDGEVASAPLQPPVPSLSEVKPPPPPPPAQTFLFQGQPVVNRPLSLKDQQTFARSVGLKWRKVGRSLQRGCRALRDPALDSLAYEYEREGLYEQAFQLLRRFVQAEGRRATLQRLVEALEENELTSLAEDLLGLTDPNGGLA
2 |  | no binding | FADD (other, UniProt Q13158 1-208, looked up, Detected with a polyclonal antibody to FADD; also called FADD/MORT1) MDPFLVLLHSVSSSLSSSELTELKFLCLGRVGKRKLERVQSGLDLFSMLLEQNDLEPGHTELLRELLASLRRHDLLRRVDDFEAGAAAGAAPGEEDLCAAFNVICDNVGKDWRRLARQLKVSDTKIDSIEDRYPRNLTERVRESLRIWKNTEKENATVAHLVGALRSCQMNLVADLVQEVQQARDLQNRSGAMSPMSWNSDASTSEAS
